Results from paper PMC8954249, “The C-Terminal Domain of Liquorilactobacillus nagelii Dextransucrase Mediates the Production of Larger Dextrans Compared to Liquorilactobacillus hordei” (Gels, 2022).
Values belong to the molecule of their own block, whether it stands above or below them.

What was measured:
dsr3510ΔC-term = target: T1, dsr3510ΔC-term (Liquorilactobacillus nagelii, UniProt A0A3Q8CN51); assay: Michaelis-Menten fit, released fructose (D-fructose/D-glucose assay kit); format: biochemical; details: pH 5.0, 30 °C, 0.05 M sodium acetate, 1 mM CaCl2; crude enzyme extract, 2500 µg/mL protein
T1 construct: gene BSQ50_03510
From the text: Michaelis-Menten fit, released fructose (D-fructose/D-glucose assay kit) on dsr3510ΔC-term

[1] = substrate: OC[C@H]1O[C@@](CO)(O[C@H]2O[C@H](CO)[C@@H](O)[C@H](O)[C@H]2O)[C@@H](O)[C@@H]1O; assay: as above; format: biochemical, Liquorilactobacillus nagelii; details: pH 5.0, 30 °C, 0.05 M sodium acetate, 1 mM CaCl2, crude enzyme extract, 500 µg/mL protein
From the text: Michaelis-Menten fit, released fructose (D-fructose/D-glucose assay kit) on dsr3510 (full-length L. nagelii TMW 1.1827 dextransucrase)

Km (dsr3510ΔC-term): 12.6 ± 0.73 mM
Molecule: OC[C@H]1O[C@@](CO)(O[C@H]2O[C@H](CO)[C@@H](O)[C@H](O)[C@H]2O)[C@@H](O)[C@@H]1O [sucrose]

B1: dsr3510 (full-length L. nagelii TMW 1.1827 dextransucrase) (Liquorilactobacillus nagelii) (protein)
chain: NVKISADSTPQNVVEQSSSSNDSSSNSSSSSKTSSSSKVNTDQVNEDTSSSITKENNISAMPKKQTQLTTATTAADKVTQTTDTSATTTAATNQQKNNQVESSSQSSSEQASSTISNNTTVSNTDSQQSSSQVANVTGGKYVDSNETWSYVDSQGNKIKGLNKVDGNLQYFDETSGAQIKGEYEKVGETTYYFDKNSGNAIPYTLTSDGKTTAYQADGQPAGAGFFTNQDGEIYYFDADGSYKTGLQTLNGTTYYFDSNGYLSKDTVENVDGKTYYSQADTGKTIQLTSQNLPTQTSTAKEVASFAAHNVAYSYDTKSFENINGYLTADSWYRPTYILNDGQLWIKSTSTDFRPLLMAWWPSKSIEADYLNYMIEQGIISSTRNFSANDDSLVLNSAAQNVQIALEKNLTMTGSVNWLRQIMQSFVKKEAIWNKTSEDPSSDGLSSLQGGFLTYQNSKLTPNANSDYRILGYVPSYIKNSNDKGSEFLLANDIDNSNPVVQAEELNWLYYLMNFGSITADDSSANFDGIRVDAVDNVDADLLKIAADYFKDAYQVNQNDQNADSHLSILEDWSNNDPQYVYDQGANQLTMDDYFVGQMNYSLENAPGSNSKMERFVQWYLINRANDSTEDTAIPNYTFVRAHDSNSQDQIQKAIQAATGGEYGVFTWEQLQQGLTLYYADQASTEKKYNRYNIPSAYAMLLTNKDTVPRVYYGDLYLEGGQYMANKTIYYDTITNLLASRVKYVAGGQTMSVDGNDVLTSVRFGKGAMTASDQGTSETRTEGVGVIVSNNTSLKLKDGDQVVLHMGVAHRNQAYRAAVLTTKDGIINYTSDDNAPIAYTDNNGDLVFTNQNLLINGVEEANTSIQGYANPDVTGYLAVWVPVGAATTQDARTAATTDSSTDGKTLHSNAALDSNVIYEGFSNFISYPDSHDDNTNVVIAKNTDLFKALGITSFELAPQYRTSGDKTFLDSTIDNGYAFTDRYDLGYGTPTKYGTVDDLRNVIKALHAAGIQAIADWVPDQIYNLPTEELVTVNRTDERGNQVASSKIHDLLYVANTIGGGDYQKKYGGAFLEVLETEYPDLFKEIQASTGKTIDPSQKITSWSAEYFNGTNILGRGSDYVLRSDDNQQYFYVGDDSSEVQKFLPASLVAENDRQKYSLGDQSANNYFVQENLNGKWYLIDPLNNQKQTGFQYIPDQIKTVYYNAQGEMQYGQQFLGGHWYLFDSRTGAMETGLQYIGNQHKTVYYNVQGQMQYGQQNVNGHWYLFDSKTGAMKTGWQYISNQHKTVYYNTQGQMQYGQQNVNGHWYLFDSKTGAMKTGWQYISDQHKTVYYNGQGQMQYGQQNVNGHWYLFDSKTGAMKTGWQYISNQHKTVYYNSQGQMVYGKQVIAGKTYYFDTKTGRKL
Km [1]: 10.97 ± 1.56 mM
Vmax [1]: 200 µM/min
